Columns and labels:
[1] = biological target: T1, p55 TNF Receptor peptide (Dabcyl-N-V-K-G-T-E-D-S-G-Edans)
T1 chain: NVKGTEDSG

[2] = biological target: T2, p75 TNF Receptor peptide (Dabcyl-C-T-S-T-S-P-T-R-Edans)
T2 chain: CTSTSPTR

[3] = biological target: mouse p55 TNF receptor (mouse) (UniProt P25118); assay: cell-based or functional assay
[4] = biological target: mouse p75 TNF receptor (mouse) (UniProt P25119); assay: cell-based or functional assay
[5] = biological target: T3, IL-6 Receptor peptide (Dabcyl-A-N-A-T-S-L-P-Edans)
T3 chain: ANATSLP

[6] = biological target: T4, IL-1 Type I Receptor peptide (Dabcyl-T-H-G-I-D-A-A-Y-I-Q-Edans)
T4 chain: THGIDAAYIQ

[7] = biological target: T5, IL-1 Type II Receptor peptide (Dabcyl-Q-T-K-R-T-T-V-K-E-A-Edans)
T5 chain: QTKRTTVKEA

Sequence of mouse p75 TNF receptor (mouse) (P25119 23-474 limits assumed): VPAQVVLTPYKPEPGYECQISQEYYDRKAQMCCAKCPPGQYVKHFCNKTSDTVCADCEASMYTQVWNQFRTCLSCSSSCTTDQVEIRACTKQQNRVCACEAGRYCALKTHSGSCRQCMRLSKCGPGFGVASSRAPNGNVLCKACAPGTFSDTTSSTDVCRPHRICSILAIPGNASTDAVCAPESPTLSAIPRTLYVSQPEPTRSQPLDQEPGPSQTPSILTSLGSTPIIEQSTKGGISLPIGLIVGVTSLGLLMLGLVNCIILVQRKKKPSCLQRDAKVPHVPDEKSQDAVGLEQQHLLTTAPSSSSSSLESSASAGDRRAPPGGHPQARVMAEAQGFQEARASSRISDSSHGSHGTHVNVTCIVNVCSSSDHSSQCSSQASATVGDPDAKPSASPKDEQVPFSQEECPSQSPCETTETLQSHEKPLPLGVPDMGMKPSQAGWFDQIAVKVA
Sequence of mouse p55 TNF receptor (mouse) (P25118 30-454 limits assumed): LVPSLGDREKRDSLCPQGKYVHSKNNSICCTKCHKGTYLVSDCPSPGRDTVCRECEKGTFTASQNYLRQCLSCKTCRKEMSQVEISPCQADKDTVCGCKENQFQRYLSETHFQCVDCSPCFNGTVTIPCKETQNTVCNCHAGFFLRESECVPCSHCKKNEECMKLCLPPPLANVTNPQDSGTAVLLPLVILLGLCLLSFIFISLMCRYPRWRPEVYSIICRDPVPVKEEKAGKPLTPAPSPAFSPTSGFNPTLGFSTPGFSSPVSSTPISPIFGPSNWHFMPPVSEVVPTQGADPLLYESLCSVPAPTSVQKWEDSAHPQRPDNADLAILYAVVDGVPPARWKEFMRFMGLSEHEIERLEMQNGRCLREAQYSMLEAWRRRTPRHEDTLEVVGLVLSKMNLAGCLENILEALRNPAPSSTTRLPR

B1: MP8-FL2 (full length MP8 without His tag, from E. coli strain MP820) (protein)
chain: MCVHPGACLPHVGVSWAEFPGHFSVELSSLLVRNVNYEIPSLKKQIAKCQQLQQEYSRKEEECQAGAAEMREQFYHSCKQYGITGENVRGELLALVKDLPSQLAEIGAAAQQSLGEAIDVYQASVGFVCESPTEQVLPMLRFVQKRGNSTVYEWRTGTEPSVVERPHLEELPEQVAEDAIDWGDFGVEAVSEGTDSGISAEAAGIDWGIFPESDSKDPGGDGIDWGDDAVALQITVLEAGTQAPEGVARGPDALTLLEYTETRNQFLDELMELEIFLAQRAVELSEEADVLSVSQFQLAPAILQGQTKEKMVTMVSVLEDLIGKLTSLQLQHLFMILASPRYVDRVTEFLQQKLKQSQLLALKKELMVQKQQEALEEQAALEPKLDLLLEKTKELQKLIEADISKRYSGRPVNLMGTSL
peptide cleavage (FRET assay) [1]: The same preparation of MP8-FL2 caused cleavage of both R1 (Dabcyl-N-V-K-G-T-E-D-S-G-Edans; SEQ. ID NO:71) and R2
peptide cleavage (FRET assay) [2]: The same preparation of MP8-FL2 caused cleavage of both R1 ... and R2 (Dabcyl-C-T-S-T-S-P-T-R-Edans; SEQ. ID NO:73)

B2: MP8 (original clone, core MP8, N-terminal His tag and thrombin site) (protein)
chain: WIQRIRHEGNSTVYEWRTGTEPSVVERPHLEELPEQVAEDAIDWGDFGVEAVSEGTDSGISAEAAGIDWGIFPESDSKDPGGDGIDWGDDAVALQITVLEAGTQAPEGVARGPDALTLLEYTETRNQFLDELMELEIFLAQRAVELSEEADVLSVSQFQLAPAILQGQTKEKMVTMVSVLEDLIGKLTSLQLQHLFMILASPRYVDRVTEFLQQKLKQSQLLALKKELMVQKQQEALEEQAALEPKLDLLLEKTKELQKLIEADISKRYSGRPVNLMGTSL
circulating TNF receptor in serum of Balb/c mice after s.c. MP8 (ELISA) [3]: 100 fold
circulating TNF receptor in serum of Balb/c mice after s.c. MP8 (ELISA) [4]: 100 fold
peptide cleavage (FRET assay, Zn++/Ca++ dependent) [5]: MP8 also cleaves the IL-6 receptor peptide with high activity
relative peptide cleavage activity (FRET assay) [6]: Clone MP8 shows specificity for several receptors involved in the inflammatory pathway (TNF-R p55 and p75 isoforms, IL-6 receptor and IL-1 receptors) in comparison with control substrates
peptide cleavage (FRET assay, Zn++/Ca++ dependent) [1]: MP8 cleaves the peptides from both the p55 and p75 TNF receptors (TNF-R1 and TNF-R2)
peptide cleavage (FRET assay, Zn++/Ca++ dependent) [2]: MP8 cleaves the peptides from both the p55 and p75 TNF receptors (TNF-R1 and TNF-R2)
relative peptide cleavage activity (FRET assay) [7]: Clone MP8 shows specificity for several receptors involved in the inflammatory pathway (TNF-R p55 and p75 isoforms, IL-6 receptor and IL-1 receptors) in comparison with control substrates

Source: patent publication US20070149453A1
